The numbers were not newly measured in PMC7561547, which cites them from elsewhere.

In this series the target is Her2 (Homo sapiens) (UniProt P04626).

trastuzumab: the Kd is 0.1 nM.
